In the supplement of paper PMC10126150:
± gives the standard deviation of the averaged measurements.

System: ATP
Test: switch fluorescence ratio, 500 uM ATP over buffer (Cy3 cluster intensity, sum of 5 cycles each) (fold (ratio)); higher = stronger signal-on switching upon ATP binding; sequences stand for … in TCGTCGGCAGCGTCAGATGTGTATAAGAGACAGTTTTTTTTTTTTTTTTTTTTTTTTT…TC
Conditions: aptamer strand: ATP DNA aptamer (quencher-CACCTGGGGGAGTATTGCGGAGGAAGG + anchor), 100 nM annealed; ATP concentration: 500 uM
Summary of the method: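 Exposure to 500 uM ATP lasted 15 min at 22 °C before imaging, and a selection-buffer image was taken beforehand, for Cy3-labelled switching-strand clusters on a modified Illumina MiSeq flow-cell annealed to 100 nM quencher-labelled ATP aptamer. Five buffer/ATP cycles were run with NaOH stripping and re-annealing between them. The fluorescence ratio per cluster is summed target-cycle over summed buffer-cycle Cy3 intensity, averaged per switch-domain sequence. Clusters outside 100-1000 RFU were excluded.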

Row | Sequence | switch fluorescence ratio
1 | TTTGTGATTA | 0.9954 ± 0.0093
2 | GTTACCGGAC | 1.5 ± 0.034
3 | TTTCTGGGTC | 1.02 ± 0.068
4 | CGGGTTTAAT | 0.94 ± 0.029
5 | ATATTGGAAT | 1.02 ± 0.024
6 | CGTTATTGAA | 0.9834 ± 0.0067
7 | TTAGGGGCTT | 1.02 ± 0.033
8 | GTTATTATGT | 0.994 ± 0.077
9 | GATAGGAGGG | 0.959 ± 0.012
10 | AGTGTTCGCT | 0.9732 ± 0.0052
11 | GAGTGTTTTG | 0.9957 ± 0.008
12 | TGAGCTGGCT | 0.989 ± 0.021
13 | TTGACACTGG | 1.04 ± 0.02
14 | GGTGTATTTG | 0.981 ± 0.013
15 | TATGAGGAAC | 1.09 ± 0.14
16 | TTCGTATAAG | 0.9936 ± 0.0076
17 | CTGGTTTAGC | 1 ± 0.016
18 | TGGGGGGCGT | 1.01 ± 0.043
19 | GGGTAAGCCC | 0.987 ± 0.015
20 | ATTGACATGT | 1.03 ± 0.037
21 | CTTAGTGCTT | 0.973 ± 0.039
22 | CATTCATGGA | 1.03 ± 0.035
23 | AATGTTTTTT | 1 ± 0.016

Row | Sequence | switch fluorescence ratio
24 | TAGCTAATTT | 0.979 ± 0.027
25 | CTGACGTAAG | 1.26 ± 0.29
26 | GGGTGGGGGG | 1.01 ± 0.037
27 | TGCGATTCTG | 0.978 ± 0.032
28 | GGGAGAGAAC | 0.992 ± 0.012
29 | GGGGGATAGT | 0.998 ± 0.032
30 | GCTTTACACC | 1.19 ± 0.092
31 | CACGGGCGGG | 1.05 ± 0.063
32 | ATTATAACTC | 0.957 ± 0.036
33 | ACTCGGAATT | 1.12 ± 0.019
34 | GGGTGGGGCG | 1.04 ± 0.043
35 | TGTTATATTG | 1 ± 0.035
36 | TTATCGGGGT | 1.019 ± 0.008
37 | GGCGGGTAGA | 1.043 ± 0.0093
38 | TTTTTCCTTG | 1.04 ± 0.018
39 | TGGGGGGGAG | 0.996 ± 0.029
40 | CGATTGATCA | 1.004 ± 0.0075
41 | GCTGGTGCTC | 1.06 ± 0.05
42 | AAGTGGGCGC | 0.984 ± 0.016
43 | AAAATACTAT | 1.02 ± 0.026
44 | ACGTCAGTCA | 0.976 ± 0.023
45 | ACGTTTGTCC | 1.03 ± 0.022
46 | GATTTGCATC | 1.03 ± 0.025

Row | Sequence | switch fluorescence ratio
47 | CTTTTCTGAT | 0.993 ± 0.04
48 | AATTCAGATG | 0.9623 ± 0.0077
49 | TTGTTAGGTT | 1.06 ± 0.13
50 | GGGGTTATAA | 0.998 ± 0.043
51 | AAGGAGTTTG | 0.969 ± 0.045
52 | GGGATTATTT | 0.972 ± 0.02
53 | CAGAGGGAAT | 1.05 ± 0.032
54 | GCTTCTACAG | 1.047 ± 0.01
55 | GCGGAGTATT | 1.02 ± 0.012
56 | ATTTAGACGT | 0.974 ± 0.026
57 | TTATGGTACA | 0.98 ± 0.019
58 | GTAATAAGGA | 0.994 ± 0.029
59 | GTTTGAAGCC | 1.04 ± 0.078
60 | CCGTTGTGCC | 1.022 ± 0.0018
61 | TTTCCATTAA | 1 ± 0.044
62 | GAACGACCGC | 1.34 ± 0.065
63 | GATTAAAATT | 0.951 ± 0.064
64 | AGAGGGGGGC | 1.04 ± 0.1
65 | AATTCCTCTT | 1.05 ± 0.048
66 | GAATTAGTTA | 1.01 ± 0.02
67 | ATTTTTGATC | 1.02 ± 0.032
68 | GGCTCTTCGG | 0.989 ± 0.04
69 | ACTTTGGCGG | 0.981 ± 0.044

Row | Sequence | switch fluorescence ratio
70 | TGTGATTTTC | 1.01 ± 0.016
71 | ATCAAATGTA | 0.981 ± 0.024
72 | CTCTGAGGGG | 1.16 ± 0.1
73 | TGTAAGAAAA | 0.985 ± 0.052
74 | GATGGTGTGG | 0.997 ± 0.015
75 | GCATTATGGG | 1.02 ± 0.034
76 | AAAGGTTTAC | 0.978 ± 0.025
77 | TGGTTGTGGG | 0.996 ± 0.028
78 | GAATTAATTT | 1 ± 0.04
79 | GTGGTTTTGG | 1 ± 0.035
80 | CAGTGGACCG | 1.004 ± 0.0011
81 | AGACGGGTGG | 0.9763 ± 0.0052
82 | TGGCAGCAGT | 1.09 ± 0.019
83 | CTAGGTGTGG | 1.04 ± 0.057
84 | TGCTATCATT | 1.08 ± 0.12
85 | AGGAGTTATG | 1.015 ± 0.0046
86 | TTCGGTTGTA | 1.009 ± 0.0067
87 | TTTGGACAGT | 0.978 ± 0.03
88 | CATTTCCTGA | 1.02 ± 0.038
89 | TAAGCGATCA | 1.02 ± 0.018
90 | CTAAGGGGCT | 1.01 ± 0.015
91 | CGTGAGGTGA | 1.01 ± 0.035
92 | AGCGGGGATA | 1.05 ± 0.024

Row | Sequence | switch fluorescence ratio
93 | GACGAAGATC | 1.11 ± 0.016
94 | TGATAGGGCG | 0.963 ± 0.08
95 | AGTCGGGGGT | 0.99 ± 0.024
96 | TTGTTTTCCT | 1.02 ± 0.011
97 | GAGGCTGTAT | 1 ± 0.011
98 | TGAGAGTAT | 1.01 ± 0.034
99 | TTACAAGAGG | 0.989 ± 0.024
100 | ATAACCAGTT | 0.988 ± 0.014
101 | GCTAAAACAG | 0.985 ± 0.026
102 | TAGTATATTT | 0.954 ± 0.018
103 | TAAAAGGGAA | 1.01 ± 0.024
104 | GGGGGGTTCT | 1.01 ± 0.042
105 | AGGGGCAGTA | 0.993 ± 0.032
106 | GACTGGATGG | 0.98 ± 0.011
107 | TCAAGGGTGA | 1.03 ± 0.022
108 | CTTTATGTCT | 1 ± 0.033
109 | GATCTTAGGG | 0.989 ± 0.028
110 | ATTGGTTTCT | 1.04 ± 0.074
111 | CAATATATTT | 0.982 ± 0.0049
112 | CATCGCTATG | 1.096 ± 0.0097
113 | GCGACGAGGG | 1.033 ± 0.0017
114 | TCGGACAGGC | 1.03 ± 0.035
115 | GATAATTTTT | 0.9884 ± 0.0084

Row | Sequence | switch fluorescence ratio
116 | CAGAAGCGAT | 1.33 ± 0.025
117 | TTTCAGATGG | 1.006 ± 0.0093
118 | AGACTAGTTT | 1.02 ± 0.015
119 | GACGTCAGAT | 0.9767 ± 0.0018
120 | AAAGTGTTTC | 0.986 ± 0.029
121 | TATGGATTGG | 0.977 ± 0.029
122 | TACAGGCGGA | 1.02 ± 0.021
123 | CAGACTGGGG | 1 ± 0.039
124 | GGGTATGCGG | 0.978 ± 0.042
125 | TTCTTTTTTT | 1.01 ± 0.032
126 | ACTCTTGTTT | 1.03 ± 0.014
127 | TCCTGCCTTA | 1.0991 ± 0.00051
128 | GATAAGTCAG | 0.989 ± 0.018
129 | TATTTATTTG | 1.02 ± 0.045
130 | TGTCAGTTGG | 1.02 ± 0.06
131 | GCTGTTGGGA | 0.9968 ± 0.0078
132 | TGGGGTTGAA | 0.958 ± 0.022
133 | AATTCGCGGG | 0.981 ± 0.0069
134 | TAGCCATTGG | 1.05 ± 0.081
135 | GTGGCGTAGG | 0.981 ± 0.021
136 | GCGGCTGTTA | 1.01 ± 0.013
137 | TTTTTTTAAC | 0.999 ± 0.032
138 | GGAGGAGTTT | 1.65 ± 0.92

Row | Sequence | switch fluorescence ratio
139 | AGAGAGGTTT | 0.986 ± 0.039
140 | GGGAGGGCGT | 0.981 ± 0.034
141 | TTTATAAAGT | 0.958 ± 0.032
142 | GGGAAAGGAA | 0.989 ± 0.018
143 | GCAGTTAAGT | 1 ± 0.037
144 | CCAGGTTTGG | 1.03 ± 0.024
145 | ACATTGGAGG | 0.986 ± 0.025
146 | CTAATGGACC | 1.01 ± 0.03
147 | AGGAGTGTGG | 1.01 ± 0.031
148 | TTTCGGAGGG | 0.982 ± 0.034
149 | GTGTGAGCGG | 0.9901 ± 0.0052
150 | GGCCGAGGTC | 1.02 ± 0.013
151 | CGGTGAAGCC | 0.984 ± 0.019
152 | TTTGCATCTA | 1.0306 ± 0.00072
153 | GCGACTGCGG | 0.982 ± 0.021
154 | GCTACGTGTT | 1.053 ± 0.007
155 | CCTGTGCGGA | 1.534 ± 0.013
156 | AGCTGGCAGC | 1.009 ± 0.0012
157 | TTCATAGGCA | 1 ± 0.039
